Laboratory results as given in patent US20260250404A1 (Genmab, published 2026).

Tests used:
[1] = target: T1, recombinant His-tagged human FcγRIa (Sino Biological 10256-H08S-B) (human, UniProt P12314 16-288); assay: SPR (Biacore 8K), His-tagged FcγR captured on anti-His chip, antibody injected, relative binding response (RU), n=1
[2] = target: T2, recombinant His-tagged human FcγRIIIa, 176-Val [V] / V158 variant (human, UniProt P08637 17-208); assay: SPR (Biacore 8K), His-tagged FcγR captured on anti-His chip, antibody injected, binding response (RU), n=3
T2 construct: also called FcγRIIIa-V; FcγRIIIa-V158

[3] = target: T3, recombinant His-tagged human FcγRIIb (human, UniProt P31994 43-217, limits assumed); assay: as above
T3 sequence (looked up): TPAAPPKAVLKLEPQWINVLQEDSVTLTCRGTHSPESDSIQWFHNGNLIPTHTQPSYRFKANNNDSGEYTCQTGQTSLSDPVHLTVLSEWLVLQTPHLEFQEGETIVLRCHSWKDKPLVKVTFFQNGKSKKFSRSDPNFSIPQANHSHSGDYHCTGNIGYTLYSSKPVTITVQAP

[4] = target: T4, recombinant His-tagged human FcγRIIIa, 176-Phe [F] / F158 variant (human, UniProt P08637 17-208); assay: as above
T4 construct: also called FcγRIIIa-F; FcγRIIIa-F158

[5] = target: T5, recombinant human neonatal Fc receptor FcRn (SinoBiological CT071-H27H-B) (human, UniProt P55899 24-297; P61769 21-119); assay: SPR at pH 6.0; previous in-house experiments with the same assay set-up; previous in-house experiments, same assay set-up, 12 data points
T5 construct: Composition of the bought protein is not described

[6] = target: T6, recombinant His-tagged human FcγRIIa, 167-His [H] / H131 variant (human, UniProt P12318 34-218, limits assumed); assay: SPR (Biacore 8K), His-tagged FcγR captured on anti-His chip, antibody injected, binding response (RU), n=3
T6 construct: catalogue numbers differ; also called FcγRIIa-H; FcγRIIa-H131
T6 sequence (looked up): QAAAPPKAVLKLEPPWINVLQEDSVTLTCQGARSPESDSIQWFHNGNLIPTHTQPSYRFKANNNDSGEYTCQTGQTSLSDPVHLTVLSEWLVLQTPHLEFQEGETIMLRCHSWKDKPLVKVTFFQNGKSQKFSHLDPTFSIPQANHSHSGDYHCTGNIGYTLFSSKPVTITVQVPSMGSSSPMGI

[7] = target: T1, recombinant His-tagged human FcγRIa …; assay: as above
[8] = target: T7, recombinant His-tagged human FcγRIIa, 167-Arg [R] / R131 variant (human, UniProt P12318 34-218, limits assumed); assay: as above
T7 construct: catalogue numbers differ; also called FcγRIIa-R; FcγRIIa-R131
T7 sequence (looked up): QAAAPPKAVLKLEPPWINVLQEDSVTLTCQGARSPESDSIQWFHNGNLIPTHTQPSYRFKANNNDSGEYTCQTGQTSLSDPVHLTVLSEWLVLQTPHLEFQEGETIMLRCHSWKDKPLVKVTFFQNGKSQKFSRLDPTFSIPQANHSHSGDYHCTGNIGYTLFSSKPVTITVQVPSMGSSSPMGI

[9] = target: T8, human FcγRIa on the cell surface (transfected CHO-S cells, M0/M1 macrophages, hMDM, FcγRI effector reporter … (human, UniProt P12314 16-374)); assay: flow cytometry on CHO-S cells transiently expressing human FcγRIa, PE goat anti-human IgG F(ab')2, % PE+ cells
T8 construct: whole, on cells; also called CD64
T8 sequence (P12314 16-374): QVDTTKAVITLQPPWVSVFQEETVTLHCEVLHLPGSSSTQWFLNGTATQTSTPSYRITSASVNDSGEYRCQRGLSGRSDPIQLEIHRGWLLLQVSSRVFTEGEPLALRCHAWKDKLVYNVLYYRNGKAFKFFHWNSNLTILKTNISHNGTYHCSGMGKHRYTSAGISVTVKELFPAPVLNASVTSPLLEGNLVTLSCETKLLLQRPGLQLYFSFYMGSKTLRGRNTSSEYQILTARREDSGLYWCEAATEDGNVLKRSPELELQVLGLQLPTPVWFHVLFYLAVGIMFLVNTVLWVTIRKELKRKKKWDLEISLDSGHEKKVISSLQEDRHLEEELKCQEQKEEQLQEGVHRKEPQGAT

T1 sequence (P12314 16-288 limits assumed, stated change not applied): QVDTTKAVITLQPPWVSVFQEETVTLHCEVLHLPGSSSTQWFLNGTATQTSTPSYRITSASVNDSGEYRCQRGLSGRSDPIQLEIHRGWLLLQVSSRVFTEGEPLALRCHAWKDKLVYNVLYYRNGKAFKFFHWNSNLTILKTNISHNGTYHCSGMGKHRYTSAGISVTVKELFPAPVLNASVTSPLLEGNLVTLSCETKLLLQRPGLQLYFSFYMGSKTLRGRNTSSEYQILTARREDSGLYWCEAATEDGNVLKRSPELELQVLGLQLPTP
T4 sequence (P08637 17-208 limits assumed, change not shown): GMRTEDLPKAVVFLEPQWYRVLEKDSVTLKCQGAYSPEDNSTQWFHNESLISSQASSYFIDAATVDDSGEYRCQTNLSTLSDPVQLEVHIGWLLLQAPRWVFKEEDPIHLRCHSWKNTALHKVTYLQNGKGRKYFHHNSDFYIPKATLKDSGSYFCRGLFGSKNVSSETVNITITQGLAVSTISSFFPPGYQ
T2 sequence (P08637 other isoform, or with tags, fused parts or gaps mutant limits assumed): as the sequence (P08637 17-208 limits assumed, change not shown) above, with F160V counted along it

B1: IgG1-ctrl (b12 antigen-binding domains, wild-type human IgG1m(f) Fc) (antibody)
heavy: not shown
light: EIVLTQSPGTLSLSPGERATFSCRSSHSIRSRRVAWYQHKPGQAPRLVIHGVSNRASGISDRFSGSGSGTDFTLTITRVEPEDFALYYCQVYGASSYTFGQGTKLERKRTVAAPSVFIFPPSDEQLKSGTASVVCLLNNFYPREAKVQWKVDNALQSGNSQESVTEQDSKDSTYSLSSTLTLSKADYEKHKVYACEVTHQGLSSPVTKSFNRGEC
With B1 the “EC50 (read off the curve)” value [1] was about 30 nM, the binding result [2] was “binds” and the binding result [3] was “binds”. The binding result [4] was “binds”, the Kd [5] was 34 nM and the binding result [6] was “binds”. The “EC50 (read off the curve)” value [7] was about 30 nM, the binding result [8] was “binds” and the “EC50 (read off the curve)” value [9] was about 0.02 µg/mL.
